# Measured values reported in US20090215992A1 (published 2009).
# Target: T1, mouse IL-1α (mouse, UniProt P01582 115-270)
# T1 sequence (looked up): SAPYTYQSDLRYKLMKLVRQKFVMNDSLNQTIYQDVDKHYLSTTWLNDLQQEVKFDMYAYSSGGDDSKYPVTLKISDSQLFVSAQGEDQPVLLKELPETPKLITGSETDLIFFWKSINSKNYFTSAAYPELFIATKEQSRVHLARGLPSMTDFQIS
# Assay: cell-based or functional assay
binder,measurement,value
"mIL-1α/β DVD-Ig (bispecific antibody, mouse IgG2a, kappa) heavy: EVQLQQSGPELVKPGTSVKMSCKTSGYTFTSYVMHWVKQKPGQGLEWIGYIIPYNDNTKYNEKFKGKATLTSDKSSSTAYMELSSLTSEDSAVYYCARRNEYYGSSFFDYWGQGTTLTVSSAKTTAPSVYPLAPQVILKESGPGILQPSQTLSLTCSFSGFSLSTYGTAVNWIRQPSGKGLEWLAQIGSDDRKLYNPFLKSRITLSEDTSNSQVFLKITSVDTEDSATYYCANGVMEYWGLGTSVTVSSAKTTAPSVYPLAPVCGDTTGSSVTLGCLVKGYFPEPVTLTWNSGSLSSGVHTFPAVLQSDLYTLSSSVTVTSSTWPSQSITCNVAHPASSTKVDKKIEPRGPTIKPCPPCKCPAPNLLGGPSVFIFPPKIKDVLMISLSPIVTCVVVDVSEDDPDVQISWFVNNVEVHTAQTQTHREDYNSTLRVVSALPIQHQDWMSGKEFKCKVNNKDLPAPIERTISKPKGSVRAPQVYVLPPPEEEMTKKQVTLTCMVTDFMPEDIYVEWTNNGKTELNYKNTEPVLDSDGSYFMYSKLRVEKKNWVERNSYSCSVVHEGLHNHHTTKSFSRTPGK light: DIQMTQSPASLSASVGETVTITCRGSGILHNYLVWYQQKQGKSPQLLVYSAKILADGVPSRFSGSGSGTQYSLKINSLQPEDFGSYYCQHFWSTPFTFGSGTKLEIKRADAAPTVSIFPPSIVMTQTPKFLLVSAGDRVTITCKASQSVNHDVAWYQQMPGQSPKLLIYFASNRYTGVPDRFTGSGYGTDFTFTISTVQAEDLAVYFCQQDYSSPYTFGGGTKLEIKRADAAPTVSIFPPSSEQLTSGGASVVCFLNNFYPKDINVKWKIDGSERQNGVLNSWTDQDSKDSTYSMSSTLTLTKDEYERHNSYTCEATHKTSTSPIVKSFNRNEC",fold decrease of potency against the parental anti-mIL-1α mAb,10 fold
